# From article PMC5083130
# Assays:
# [1] = target: NCS-Orf16 (S. carzinostaticus); assay: SEC
# [2] = target: SgcJ (Streptomyces globisporus); assay: SEC
Substance,stoichiometry N [1],stoichiometry N [2]
NCS-Orf16 (natural protein),2,
SgcJ (natural protein),,2
